In patent publication US20180149657A1 (IMMUNOMEDICS, published 2018):

Molecular target: T1, human Trop-2 (human, UniProt P09758 27-323)
T1 construct: whole, on cells; also called EGP-1; epithelial glycoprotein-1
T1 sequence (looked up): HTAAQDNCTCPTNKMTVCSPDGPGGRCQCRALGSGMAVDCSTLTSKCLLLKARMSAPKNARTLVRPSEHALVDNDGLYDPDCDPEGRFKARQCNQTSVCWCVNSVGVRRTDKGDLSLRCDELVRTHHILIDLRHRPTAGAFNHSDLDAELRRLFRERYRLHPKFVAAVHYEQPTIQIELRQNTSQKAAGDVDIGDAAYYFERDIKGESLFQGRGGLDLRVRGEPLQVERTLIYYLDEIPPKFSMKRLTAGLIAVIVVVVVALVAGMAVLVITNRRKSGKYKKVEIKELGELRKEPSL
Test: cell binding assay on NCI-N87 cells, anti-mouse-HRP secondary, luminescence

B1: murine RS7 (antibody, V domains shown)
VH: VKLQESGPELKKPGETVKISCKASGYTFTNYGMNWVKQAPGKGLKWMGWINTYTGEPTYTDDFKGRFAFSLETSATTAYLQINNLKSEDMATYFCARGGFGSSYWYFDVWGQGTTVTVSS
VL: DIQLTQSHKFMSTSVGDRVSITCKASQDVSIAVAWYQQKPGQSPKLLIYSASYRYTGVPDRFTGSGSGTDFTFTISSVQAEDLAVYYCQQHYITPLTFGAGTKLELK
A Kd of 0.57 nM was found for B1 in this work.
